Here are results for 5 molecules from US20200399375A1 (SUZHOU SUNCADIA BIOPHARMACEUTICALS, published 2020).

The target in experiment [1] is T1, PD-L1 Fc fusion protein: PD-L1 (ECD)-Fc (human IgG1) (human).
T1 construct: Coated on the plate in Tests 1 to 3; also called huPD-L1-Fc; VKL-PD-L1(ECD)-Fc(human IgG1)
The experiment is described as follows: blocking ELISA, PD-L1(ECD)-Fc coated, competitor biotin-PD-1-Fc. On the procedure: The dilution of biotin (Dojindo Chemical, LK03: 3 samples) and avidin (Sigma, S2438-250UG) was 6% BSA (diluted with PBS containing 0.1% Tween20), and PBS was used as coating solution. Microtitration plates were directly coated with 1 μg/ml ([…]) of PD-L1(ECD)-Fc(SEQ ID NO: 4) and incubated at 4° C. overnight. The plate was washed three times and was blocked for 2h at 37° C. with 3% BSA(diluted with PBS containing 0.1% Tween20). The plate was washed three times and 50 μl/well of cell supernatant was added to each well. Then 50 μl/well of bio-PD-1-Fc (biotin-labeled PD-1-Fc, SEQ ID NO: 5, 2 μg/ml, PD-1-FC was labeled according to the method of Dojindo Chemical Kits Biotin Labeling Kit-NH2, LK03: 3 samples) was added to each well, well-mixed by vortex, and incubated at 37° C. for 1 h. The plates were washed 6 times, followed by addition of 50 μl/well Streptavidin-Peroxidase Polymer (S2438-250UG, Sigma, which was diluted at a ratio of 1:400), and incubated on shaker for 50 min at room temperature. The plate was washed 6 times, and then I00 μl/well of TMB was added, and incubated for 5-10 min at 37° C. Then the reaction was terminated with addition of 100 μl/well of 1M H2SO₄. The absorbance value was read on microplate reader (BMG Labtech, NOVOStar) at 450 nm, and the IC₅₀ value for blocking the binding of PD-1 antibody to ligand PD-L1 was calculated.

The target of experiment [2] is T1, PD-L1 Fc fusion protein: PD-L1 (ECD)-Fc …. The experiment is described as follows: blocking ELISA, PD-L1(ECD)-Fc coated, competitor biotin-human B7.1.
Experiment [3] addresses T2, human PD-L1 antigen (huPD-L1-his, Sino biological, 10084-H08H-200) (human, UniProt Q9NZQ7 19-239).
T2 construct: Bought protein; also called human PD-L1-his; not shown: His tag
Description: Biacore X100, antibody captured by anti-human antibody on CM5, antigen in flow, 1:1 Langmuir. In general terms: SPR reads the build-up and loss of mass on a sensor chip optically.

The target of experiment [4] is T3, cynomolgus PD-L1 antigen (Cyno PD-L-his, Sino 90251-C08H-100) (cynomolgus, UniProt G7PSE7 19-239).
T3 construct: Bought protein; also called CynoPD-L1-his; not shown: His tag
The description is as above.

Experiment [5] concerns the target T2, human PD-L1 antigen (huPD-L1-his, Sino …). The experiment is described as follows: affinity measurement; method and antigen not named in the sentence (PD-L1).
The target in experiment [6] is T1, PD-L1 Fc fusion protein: PD-L1 (ECD)-Fc …. Description: hybridoma screening, binding ELISA on coated PD-L1(ECD)-Fc (Test 1). On the procedure: On day 10-11 after fusion, an ELISA assay was performed on PD-L1 binding according to the density of the growing cells (see Test 1). For the positive cells detected in the ELISA assay (Test 1), blockade in PD-L1/PD-1 binding was detected via ELISA analysis (see Test 2). Medium in the positive wells was changed and the positive cells were expanded to a 24-well plate depending on cell density. After re-testing, the cells transferred into the 24-well plate were used for breed conservation and first sub-cloning. The positive cells during the first sub-clone screening (see Test 1) were used for breed conservation and subjected to a second sub-cloning. The positive cells during the second sub-cloning were (see Test 1) used for breed conservation and protein expression. Hybridoma cells having blocking effect on PD-L1 and PD-1 binding (see Test 2) were obtained by multiple cell fusions.
Microtitration plates were directly coated with 1 μg/ml ([…]) of PD-L1(ECD)-Fc(SEQ ID NO: 4) and incubated at 4° C. overnight. Then the plates were blocked with 150 μl/well of PBS containing 5% Skim Milk(BD, 232100) and incubated at 4° C. overnight. […] The reaction was stopped by the addition of 50 μl/well of 1M H₂SO₄ to each well and the OD value was read on an ELISA microplate reader (BMG Labtech, NOVOStar) at a wavelength of 450 nm.
In general terms: An ELISA detects its analyte on a solid surface through an enzyme-linked reagent.

Experiment [7] addresses T2, human PD-L1 antigen (huPD-L1-his, Sino …). Description: BIACORE (Test 4). An excerpt: The anti-human capture antibody was covalently linked to the CM5 biochip (GE, BR-1000-12) according to the method described in the anti-human trapping kit (GE, BR-1008-39) instructions for affinity capturing the PD-L1 antibody of the present invention. Then, a series of concentrations of human PD-L1 antigen (Sino biological, 0084-H08H-200) were flowed through the surface of the biochip, and the reaction signal was detected in real time using a Biacore instrument (GE, BiacoreX100) to obtain the association and dissociation curves. Finally, the affinity values were obtained by fitting. After each cycle of dissociation was finished in the experiment, the biochip was washed and regenerated with regeneration solution in the anti-human capture kit (GE). The data obtained was analyzed by GE's BIA evaluation software using a 1:1(Langmuir) binding model. Ka (kon), kd (koff) and KD values were determined by the assay. The affinity of hybridoma antibodies and humanized antibodies has been summarized in other examples.

B1: HRP00052: 24D5(GF) IgG4 (AA) (S228P) (antibody, V domains shown)
VH: QVQLVQSGAEVKKPGASVKVSCKASGYTFTSYWMHWVRQAPGQGLEWMGRIGPNSGFTSYNEKFKNRVTMTRDTSTSTVYMELSSLRSEDTAVYYCARGGSSYDYFDYWGQGTTVTVSS
VL: DIVLTQSPASLAVSPGQRATITCRASESVSIHGTHLMHWYQQKPGQPPKLLIYAASNLESGVPARFSGSGSGTDFTLTINPVEAEDTANYYCQQSFEDPLTFGQGTKLEIKR
notes: kappa light chain; also called 24D5 29H1 GF; humanized antibody 24D5
Consider B1, for which the IC50 in experiment [1] turned out to be 0.114 µg/mL. In experiment [2], the IC50 came out at 0.0696 µg/mL. Besides, in experiment [3], the Kd turned out to be 0.057 nM, the koff worked out at 0.000101 s⁻¹ and the kon was found to be 1.77e+06 M⁻¹ s⁻¹. Moreover, in experiment [4], the Kd stood at 0.0579 nM, the koff was found to be 0.000106 s⁻¹ and the kon amounted to 1.84e+06 M⁻¹ s⁻¹.

B2: chimeric antibody of 24D5 with a back-mutation from serine to cysteine at position 96 (antibody, V domains shown)
VH: QVQLQQPGAELVKPGASVKLSCKASGYTFTSYWMHWVQQRPGQGLEWIGRIHPNSGGTSYNEKFKNRATLTVDKSSSTAYMQFSSLTSEDSAVYYCARGGSSYDYFDYWGQGTTLTVSS
VL: DIVLTQSPASLAVSLGQRATISCRASESVSIHGTHLMHWYQQKPGQPPKLLIYAASNLESGVPARFSGSGSETDFTLNIHPVEEEDATTYFCQQSFEDPLTFGAGTKLELK
notes: it is put on the VH because the printed VH has S at 96 and C at 22 (the disulfide partner named); also called 24D5 chimeric S96C
Consider B2, for which the binding result in experiment [5] is on record as “binds”.

B3: murine antibody of hybridoma clone 9-2 (antibody, V domains shown)
VH: EVQLQESGPGLAKPSQTLSLTCSVAGYSITNDYWNWIRKFPGNKLEYMGYISYTGSTYYNPSLKSRLSITRDTSKNQYYLQLNSVTAEDTAIYYCARSGGWLAPFDYWGRGTTLTVSS
VL: DIVMSQSPSSLVVSVGEKVIMSCKSSQSLFYRSNQKNSLAWYQQKPGQSPKLLIYGASTRESGVPDRFTGSGSGTDFTVTISSVKAEDLAVYYCQQYYGYPYTFGGGTKLEIK
notes: Mouse hybridoma antibody; also called hybridoma antibody 9-2; murine antibody 9-2
On to B3, for which the binding result in experiment [6] is “binds”.

B4: 9-2 chimeric antibody (antibody, V domains shown)
VH: EVQLQESGPGLAKPSQTLSLTCSVAGYSITNDYWNWIRKFPGNKLEYMGYISYTGSTYYNPSLKSRLSITRDTSKNQYYLQLNSVTAEDTAIYYCARSGGWLAPFDYWGRGTTLTVSS
VL: DIVMSQSPSSLVVSVGEKVIMSCKSSQSLFYRSNQKNSLAWYQQKPGQSPKLLIYGASTRESGVPDRFTGSGSGTDFTVTISSVKAEDLAVYYCQQYYGYPYTFGGGTKLEIK
notes: also called the chimeric antibody (of 9-2)
Turning to B4, the binding result in experiment [7] is “binds”.

B5: HRP00049: 9-2(H2/L10) IgG4 (AA)(S228P) (antibody, V domains shown)
VH: QVQLQESGPGLVKPSQTLSLTCTVSGGSISNDYWTWIRQHPGKGLEYIGYISYTGSTYYNPSLKSRVTISRDTSKNQFSLKLSSVTAADTAVYYCARSGGWLAPFDYWGRGTLVTVSS
VL: DIVMTQSPDSLAVSLGERATINCKSSQSLFYHSNQKHSLAWYQQKPGQPPKLLIYGASTRESGVPDRFSGSGSGTDFTLTISSLQAEDVAVYYCQQYYGYPYTFGGGTKVEIKR
notes: kappa light chain; also called humanized antibody 9-2
In the case of B5, the IC50 turned out to be 0.174 µg/mL in experiment [1] and 0.113 µg/mL in experiment [2]. Further, the Kd was found to be 0.17 nM in experiment [3] and 0.172 nM in experiment [4]. The values for the koff in experiment [3] and in experiment [4] were 0.000162 s⁻¹ and 0.000167 s⁻¹, respectively. Also, the association rate constant (kon) in experiment [3] was 952000 M⁻¹ s⁻¹; in experiment [4], 974000 M⁻¹ s⁻¹.

One may read the IC50 as the midpoint of a concentration-inhibition curve. Lower therefore signals greater potency in that assay. One may read the Kd as the concentration at which binding is half-saturated. As usually defined, the koff is the first-order rate constant of dissociation. A word on the kon: it is a measure of how fast the partners come together. A high value points to faster complex formation.
